Reference: patent US20230213525

T1: ElaSub1_CBM_His chimeric protein (variant 3), separated from the TrxA tag and coupled with Remazol Brilliant Blue
T1 chain: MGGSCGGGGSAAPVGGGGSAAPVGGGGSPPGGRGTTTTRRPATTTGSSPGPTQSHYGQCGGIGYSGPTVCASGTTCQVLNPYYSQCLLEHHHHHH

T2: TrxA_ElaSub1_CBM-His fusion protein
T2 chain: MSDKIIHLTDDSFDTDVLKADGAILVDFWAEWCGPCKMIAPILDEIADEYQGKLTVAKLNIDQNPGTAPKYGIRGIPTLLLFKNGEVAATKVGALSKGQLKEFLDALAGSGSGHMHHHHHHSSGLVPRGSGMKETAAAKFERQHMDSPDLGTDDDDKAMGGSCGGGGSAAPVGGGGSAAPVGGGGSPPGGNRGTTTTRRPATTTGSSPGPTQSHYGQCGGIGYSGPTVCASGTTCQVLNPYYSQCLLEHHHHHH

B1: human leukocyte elastase (HLE) (protein)
chain: IVGGRRARPHAWPFMVSLQLRGGHFCGATLIAPNFVMSAAHCVANVNVRAVRVVLGAHNLSRREPTRQVFAVQRIFENGYDPVNLLNDIVILQLNGSATINANVQVAQLPAQGRRLGNGVQCLAMGWGLLGRNRGIASVLQELNVTVVTSLCRRSNVCTLVRGRQAGVCFGDSGSPLVCNGLIHGIASFVRGGCASGLYPDAFAPVAQFVNWIDSIIQ
B2: recombinant expressed bovine enterokinase from Merck Millipore (protein)
chain: IVGGSDSREGAWPWVVALYFDDQQVCGASLVSRDWLVSAAHCVYGRNMEPSKWKAVLGLHMASNLTSPQIETRLIDQIVINPHYNKRRKNNDIAMMHLEMKVNYTDYIQPICLPEENQVFPPGRICSIAGWGALIYQGSTADVLQEADVPLLSNEKCQQQMPEYNITENMVCAGYEAGGVDSCQGDSGGPLMCQENNRWLLAGVTSFGYQCALPNRPGVYARVPRFTEWIQSFLH

Key:
[1] = target: T1, ElaSub1_CBM_His chimeric protein …
[2] = target: T2, TrxA_ElaSub1_CBM-His fusion protein

Protein | colour of the supernatant (dye release from the filter strip carrying the chimeric peptide, 30 min, 0.05 U/ml HLE) [1] | separation of the chimeric construct from the TrxA tag (SDS-PAGE) [2]
B1 | Initially non coloured samples (clear supernatant) that exhibit elastase activity developed a blue colour | –
B2 | – | The separation of the desired chimeric construct from the TrxA-Tag was verified by SDS-PAGE.
